In CN106892979A:

Experiments:
Test in all cases: cell-based or functional assay
[1] = target: H7N9病毒Suzhou-03病毒株 (H7N9病毒)
[2] = target: H7N9病毒Wuxi-02病毒株 (H7N9病毒)
[3] = target: H7N9病毒Nanjing-06病毒株 (H7N9病毒)
[4] = target: H7N9病毒Wuxi-01病毒株 (H7N9病毒)

B1: 全人源抗H7N9病毒的单克隆中和抗体mAb635 (antibody, V domains shown)
VH: TGVHSQVQLVQSGAEVKKPGASVKISCKASGYSFTNYTLHWVRQAPGQRLEWMGWINAGNGNTRYSQKFQARVTITRDTSASTGYMEVSSLRSEDTAVYYCARGAYYGFWNGHYMGDDDNYYYGMGVWGQGPRSPSPQRR
VL: TGSLSQPVLTQPPSVSVSPGQTASITCSGDKLGDKYACWYQQKPGQSPVQVIYQDTKRPSGIPERFSGSNSGDTATLTISGTQSVDEADYYCQAWDSSRDVVFGGGTKLTVLGQPKAAPSVTLFPTLE
**Q.** With B1 as the binder, how does the 中和100×TCID50病毒需要的抗体量 [1] read?
**A.** Its 中和100×TCID50病毒需要的抗体量 is 80 ng.

**Q.** What about the 中和100×TCID50病毒需要的抗体量 [2] of the same binder?
**A.** Its 中和100×TCID50病毒需要的抗体量 is 320 ng.

**Q.** And the 中和100×TCID50病毒需要的抗体量 [3]?
**A.** The 中和100×TCID50病毒需要的抗体量 was 80 ng.

**Q.** And the 中和100×TCID50病毒需要的抗体量 [4]?
**A.** The 中和100×TCID50病毒需要的抗体量 was 160 ng.
